B1: GAGE1 (parent)
chain: RPRRYVQPPEMIGPMRPEQFSDEV

Variants of: B1
Assay: protein stability index of a GFP-peptide fusion (GPS, HEK-293T) (PSI 1-6); higher = more stable
Settings: c terminus: a fixed tail appended
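Also: lentivirally expressed fusions sorted by FACS into six bins by GFP to DsRed ratio, PSI derived from sequencing read proportions per bin multiplied by bin number.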

Row | Variant | protein stability index
1 | RPRRYVRPPEMIGPMRPEQFSDEV | 3.29
2 | RPRRYVPPPEMIGPMRPEQFSDEV | 3.96
3 | RPRRYVLPPEMIGPMRPEQFSDEV | 3.85
4 | RPRRYVVPPEMIGPMRPEQFSDEV | 3.57
5 | RPRRYVAPPEMIGPMRPEQFSDEV | 3.77
6 | RPRRYVEPPEMIGPMRPEQFSDEV | 3.86
7 | RPRRYVNPPEMIGPMRPEQFSDEV | 3.64
8 | RPRRYVDPPEMIGPMRPEQFSDEV | 3.8
9 | RPRRYVWPPEMIGPMRPEQFSDEV | 3.73
10 | RPRRYVKPPEMIGPMRPEQFSDEV | 4.02
11 | RPRRYVFPPEMIGPMRPEQFSDEV | 3.87
12 | RPRRYVYPPEMIGPMRPEQFSDEV | 3.73
13 | RPRRYVTPPEMIGPMRPEQFSDEV | 4.01
14 | RPRRYVHPPEMIGPMRPEQFSDEV | 4.14
15 | RPRRYVIPPEMIGPMRPEQFSDEV | 3.63
16 | RPRRYVSPPEMIGPMRPEQFSDEV | 4.24
17 | RPRRYVGPPEMIGPMRPEQFSDEV | 3.3
18 | RPRRYVMPPEMIGPMRPEQFSDEV | 3.52
19 | RPRRYVCPPEMIGPMRPEQFSDEV | 4.04
20 | RPRRYVQPPEMIGPMAPEQFSDEV | 4.31
21 | RPRRYVQPPEMIGPMCPEQFSDEV | 3.84
22 | RPRRYVQPPEMIGPWRPEQFSDEV | 3.49
23 | RPRRYVQPPEMIGPGRPEQFSDEV | 4.7
24 | RPRRYVQPPEMIGPPRPEQFSDEV | 4.31

Row | Variant | protein stability index
25 | RPRRYVQPPEMIGPKRPEQFSDEV | 4.48
26 | RPRRYVQPPEMIGPSRPEQFSDEV | 4.84
27 | RPRRYVQPPEMIGPQRPEQFSDEV | 4.58
28 | RPRRYVQPPEMIGPLRPEQFSDEV | 3.95
29 | RPRRYVQPPEMIGPIRPEQFSDEV | 4.12
30 | RPRRYVQPPEMIGPCRPEQFSDEV | 4.31
31 | RPRRYVQPPEMIGPERPEQFSDEV | 4.78
32 | RPRRYVQPPEMIGPVRPEQFSDEV | 4.49
33 | RPRRYVQPPEMIGPHRPEQFSDEV | 3.69
34 | RPRRYVQPPEMIGPTRPEQFSDEV | 4.72
35 | RPRRYVQPPEMIGPYRPEQFSDEV | 4
36 | RPRRYVQPPEMIGPDRPEQFSDEV | 4.75
37 | RPRRYVQPPEMIGPRRPEQFSDEV | 4.17
38 | RPRRYVQPPEMIGPNRPEQFSDEV | 3.97
39 | RPRRYVQPPEMIGPFRPEQFSDEV | 3.89
40 | RPRRYVQPPEMIGPARPEQFSDEV | 4.21
41 | RPRRYVQPPVMIGPMRPEQFSDEV | 3.99
42 | RPRRYVQPPYMIGPMRPEQFSDEV | 3.18
43 | RPRRYVQPPGMIGPMRPEQFSDEV | 4.16
44 | RPRRYVQPPSMIGPMRPEQFSDEV | 4.08
45 | RPRRYVQPPQMIGPMRPEQFSDEV | 3.69
46 | RPRRYVQPPRMIGPMRPEQFSDEV | 4.39
47 | RPRRYVQPPNMIGPMRPEQFSDEV | 3.97
48 | RPRRYVQPPAMIGPMRPEQFSDEV | 4.15

Row | Variant | protein stability index
49 | RPRRYVQPPKMIGPMRPEQFSDEV | 4.48
50 | RPRRYVQPPFMIGPMRPEQFSDEV | 3.88
51 | RPRRYVQPPMMIGPMRPEQFSDEV | 4
52 | RPRRYVQPPTMIGPMRPEQFSDEV | 4.33
53 | RPRRYVQPPPMIGPMRPEQFSDEV | 4.25
54 | RPRRYVQPPIMIGPMRPEQFSDEV | 3.69
55 | RPRRYVQPPLMIGPMRPEQFSDEV | 3.39
56 | RPRRYVQPPDMIGPMRPEQFSDEV | 4.51
57 | RPRRYVQPPWMIGPMRPEQFSDEV | 3.56
58 | RPRRYVQPPHMIGPMRPEQFSDEV | 4.32
59 | RPRRYVQPPCMIGPMRPEQFSDEV | 3.13
60 | RPRRYVQPPEMIGIMRPEQFSDEV | 4.13
61 | RPRRYVQPPEMIGDMRPEQFSDEV | 4.54
62 | RPRRYVQPPEMIGMMRPEQFSDEV | 3.6
63 | RPRRYVQPPEMIGEMRPEQFSDEV | 4.41
64 | RPRRYVQPPEMIGYMRPEQFSDEV | 4.26
65 | RPRRYVQPPEMIGRMRPEQFSDEV | 4.31
66 | RPRRYVQPPEMIGAMRPEQFSDEV | 4.38
67 | RPRRYVQPPEMIGQMRPEQFSDEV | 4.23
68 | RPRRYVQPPEMIGFMRPEQFSDEV | 3.54
69 | RPRRYVQPPEMIGNMRPEQFSDEV | 4.2
70 | RPRRYVQPPEMIGCMRPEQFSDEV | 3.68
71 | RPRRYVQPPEMIGLMRPEQFSDEV | 3.48
72 | RPRRYVQPPEMIGWMRPEQFSDEV | 3.58

Row | Variant | protein stability index
73 | RPRRYVQPPEMIGGMRPEQFSDEV | 3.97
74 | RPRRYVQPPEMIGTMRPEQFSDEV | 4.44
75 | RPRRYVQPPEMIGVMRPEQFSDEV | 4.2
76 | RPRRYVQPPEMIGSMRPEQFSDEV | 4.13
77 | RPRRYVQPPEMIGHMRPEQFSDEV | 4.31
78 | RPRRYVQPPEMIGKMRPEQFSDEV | 3.71
79 | RPRRYVQPPETIGPMRPEQFSDEV | 3.74
80 | RPRRYVQPPENIGPMRPEQFSDEV | 3.38
81 | RPRRYVQPPEEIGPMRPEQFSDEV | 3.88
82 | RPRRYVQPPEIIGPMRPEQFSDEV | 3.38
83 | RPRRYVQPPEHIGPMRPEQFSDEV | 4.37
84 | RPRRYVQPPEVIGPMRPEQFSDEV | 3.46
85 | RPRRYVQPPEKIGPMRPEQFSDEV | 4.15
86 | RPRRYVQPPELIGPMRPEQFSDEV | 3.4
87 | RPRRYVQPPEYIGPMRPEQFSDEV | 3.82
88 | RPRRYVQPPEQIGPMRPEQFSDEV | 3.84
89 | RPRRYVQPPECIGPMRPEQFSDEV | 3.56
90 | RPRRYVQPPEFIGPMRPEQFSDEV | 4.05
91 | RPRRYVQPPEPIGPMRPEQFSDEV | 4.53
92 | RPRRYVQPPESIGPMRPEQFSDEV | 3.54
93 | RPRRYVQPPEAIGPMRPEQFSDEV | 4.34
94 | RPRRYVQPPEDIGPMRPEQFSDEV | 3.53
95 | RPRRYVQPPEWIGPMRPEQFSDEV | 3.91
96 | RPRRYVQPPEGIGPMRPEQFSDEV | 4.44

Row | Variant | protein stability index
97 | RPRRYVQPPERIGPMRPEQFSDEV | 4.22
98 | RPRRYSQPPEMIGPMRPEQFSDEV | 4.17
99 | RPRRYGQPPEMIGPMRPEQFSDEV | 4.18
100 | RPRRYPQPPEMIGPMRPEQFSDEV | 4.06
101 | RPRRYTQPPEMIGPMRPEQFSDEV | 3.66
102 | RPRRYKQPPEMIGPMRPEQFSDEV | 3.83
103 | RPRRYWQPPEMIGPMRPEQFSDEV | 3.18
104 | RPRRYHQPPEMIGPMRPEQFSDEV | 3.69
105 | RPRRYQQPPEMIGPMRPEQFSDEV | 3.59
106 | RPRRYNQPPEMIGPMRPEQFSDEV | 3.9
107 | RPRRYYQPPEMIGPMRPEQFSDEV | 3.01
108 | RPRRYLQPPEMIGPMRPEQFSDEV | 3.69
109 | RPRRYIQPPEMIGPMRPEQFSDEV | 3.94
110 | RPRRYFQPPEMIGPMRPEQFSDEV | 3.39
111 | RPRRYRQPPEMIGPMRPEQFSDEV | 3.6
112 | RPRRYMQPPEMIGPMRPEQFSDEV | 3.59
113 | RPRRYVQPYEMIGPMRPEQFSDEV | 3.62
114 | RPRRYVQPMEMIGPMRPEQFSDEV | 3.92
115 | RPRRYVQPKEMIGPMRPEQFSDEV | 4.13
116 | RPRRYVQPDEMIGPMRPEQFSDEV | 4.61
117 | RPRRYVQPAEMIGPMRPEQFSDEV | 3.75
118 | RPRRYVQPSEMIGPMRPEQFSDEV | 4.29
119 | RPRRYVQPCEMIGPMRPEQFSDEV | 4.24
120 | RPRRYVQPQEMIGPMRPEQFSDEV | 4.52

Row | Variant | protein stability index
121 | RPRRYVQPFEMIGPMRPEQFSDEV | 3.79
122 | RPRRYVQPEEMIGPMRPEQFSDEV | 4.71
123 | RPRRYVQPVEMIGPMRPEQFSDEV | 2.61
124 | RPRRYVQPHEMIGPMRPEQFSDEV | 3.82
125 | RPRRYVQPTEMIGPMRPEQFSDEV | 4.28
126 | RPRRYVQPLEMIGPMRPEQFSDEV | 4
127 | RPRRYVQPGEMIGPMRPEQFSDEV | 4.46
128 | RPRRYVQPWEMIGPMRPEQFSDEV | 3.77
129 | RPRRYVQPNEMIGPMRPEQFSDEV | 3.97
130 | RPRRYVQPREMIGPMRPEQFSDEV | 4.36
131 | RPRRYVQPIEMIGPMRPEQFSDEV | 3.57
132 | RPRRYVQPPEMIPPMRPEQFSDEV | 4.68
133 | RPRRYVQPPEMIEPMRPEQFSDEV | 3.95
134 | RPRRYVQPPEMIKPMRPEQFSDEV | 3.72
135 | RPRRYVQPPEMISPMRPEQFSDEV | 4.09
136 | RPRRYVQPPEMIYPMRPEQFSDEV | 3.85
137 | RPRRYVQPPEMITPMRPEQFSDEV | 4.33
138 | RPRRYVQPPEMIAPMRPEQFSDEV | 4.21
139 | RPRRYVQPPEMIVPMRPEQFSDEV | 4.05
140 | RPRRYVQPPEMIIPMRPEQFSDEV | 3.25
141 | RPRRYVQPPEMIRPMRPEQFSDEV | 4.19
142 | RPRRYVQPPEMIHPMRPEQFSDEV | 4.07
143 | RPRRYVQPPEMIFPMRPEQFSDEV | 3.8
144 | RPRRYVQPPEMIDPMRPEQFSDEV | 4.63

Row | Variant | protein stability index
145 | RPRRYVQPPEMIMPMRPEQFSDEV | 4.14
146 | RPRRYVQPPEMIQPMRPEQFSDEV | 4.54
147 | RPRRYVQPPEMILPMRPEQFSDEV | 3.71
148 | RPRRYVQPPEMICPMRPEQFSDEV | 3.96
149 | RPRRYVQPPEMINPMRPEQFSDEV | 4.33
150 | RPRRYVQPPEMIWPMRPEQFSDEV | 3.56
151 | RPRRYVQPPEMNGPMRPEQFSDEV | 4.71
152 | RPRRYVQPPEMSGPMRPEQFSDEV | 4.36
153 | RPRRYVQPPEMDGPMRPEQFSDEV | 4.72
154 | RPRRYVQPPEMRGPMRPEQFSDEV | 4.35
155 | RPRRYVQPPEMGGPMRPEQFSDEV | 4.69
156 | RPRRYVQPPEMMGPMRPEQFSDEV | 4.39
157 | RPRRYVQPPEMVGPMRPEQFSDEV | 4.77
158 | RPRRYVQPPEMHGPMRPEQFSDEV | 4.3
159 | RPRRYVQPPEMFGPMRPEQFSDEV | 3.99
160 | RPRRYVQPPEMWGPMRPEQFSDEV | 3.84
161 | RPRRYVQPPEMTGPMRPEQFSDEV | 4.53
162 | RPRRYVQPPEMPGPMRPEQFSDEV | 4.31
163 | RPRRYVQPPEMQGPMRPEQFSDEV | 4.62
164 | RPRRYVQPPEMYGPMRPEQFSDEV | 3.91
165 | RPRRYVQPPEMKGPMRPEQFSDEV | 4.62
166 | RPRRYVQPPEMAGPMRPEQFSDEV | 4.42
167 | RPRRYVQPPEMEGPMRPEQFSDEV | 4.57
168 | RPRRYVQPPEMCGPMRPEQFSDEV | 4.33

Row | Variant | protein stability index
169 | RPRRYVQPPEMLGPMRPEQFSDEV | 4.12
170 | RPRRYVQGPEMIGPMRPEQFSDEV | 4.51
171 | RPRRYVQVPEMIGPMRPEQFSDEV | 3.5
172 | RPRRYVQNPEMIGPMRPEQFSDEV | 4.22
173 | RPRRYVQLPEMIGPMRPEQFSDEV | 3.31
174 | RPRRYVQTPEMIGPMRPEQFSDEV | 4.12
175 | RPRRYVQDPEMIGPMRPEQFSDEV | 4.31
176 | RPRRYVQSPEMIGPMRPEQFSDEV | 4.36
177 | RPRRYVQYPEMIGPMRPEQFSDEV | 3.52
178 | RPRRYVQCPEMIGPMRPEQFSDEV | 3.61
179 | RPRRYVQFPEMIGPMRPEQFSDEV | 3.41
180 | RPRRYVQWPEMIGPMRPEQFSDEV | 3.09
181 | RPRRYVQQPEMIGPMRPEQFSDEV | 3.37
182 | RPRRYVQEPEMIGPMRPEQFSDEV | 4.54
183 | RPRRYVQAPEMIGPMRPEQFSDEV | 3.71
184 | RPRRYVQRPEMIGPMRPEQFSDEV | 3.93
185 | RPRRYVQMPEMIGPMRPEQFSDEV | 3.48
186 | RPRRYVQKPEMIGPMRPEQFSDEV | 3.98
187 | RPRRYVQHPEMIGPMRPEQFSDEV | 4.18
188 | RPRRYVQIPEMIGPMRPEQFSDEV | 3.27
